Source: patent publication US20240228595A1 (YALE UNIVERSITY, published 2024)
Like-named read-outs stand apart in the source and are kept apart here.

B1: Clone 6 (antibody, V domains shown)
VH: QVQLQQSAAELARPGASVKMSCKASGYTFTSYTMHWVKQRPGQGLEWIGYINPTSGYTEYNQNFKDKTTLTADKSSSTAYMQLNSLTSEDSAVYYCAREGHRVGPAYWGQGTLVTVSA
VL: not shown
B2: Clone 13 (antibody, human IgG1, kappa, V domains shown)
VH: EVQLVESGGGLVQPGGSLRLSCAASGFTFSGYSMNWVRQAPGKGLEWVAEINPSTGGTTDNQKFKARFTISRDNSKNTLYLQMNSLRAEDTAVYYCARSRGDYWGQGTLVTVSS
VL: DIQMTQSPSSLSASVGDRVTITCRASESVEYYGTSLMQWYQQKPGKAPKLLIYAASNVESGVPSRFSGSGSGTDFTLTISSLQPEDFATYYCQQSRKVPWTFGQGTKVEIKR
B3: Clone 16 (Clone6-KiH-Clone2) bispecific antibody (bispecific antibody)
heavy 1: not shown
light 1: DIVLTQSPASLAVSLGQRATISCRASESVDNYGISFMNWFQQTPGQPPKLLIYGSSNQGSGVPARFSGSGSGTDFSLNIHPMEEDDTAMYFCQQSKEVPYTFGGGTKLEIKRTVAAPSVFIFPPSDEQLKSGTASVVCLLNNFYPREAKVQWKVDNALQSGNSQESVTEQDSKDSTYSLSSTLTLSKADYEKHKVYACEVTHQGLSSPVTKSFNRGEC
heavy 2: not shown
light 2: DIVLTQSPASLAVSLGQRATISCRASESVEYYGTSLMQWYQQKPGQPPKVLIYAASNVESGVPARFSGSGSGTDFSLNIHPVEEDDIAMYFCQQSRKVPWTFGGGTKLEIKRSSASTKGPSVFPLAPSSKSTSGGTAALGCLVKDYFPEPVTVSWNSGALTSGVHTFPAVLQSSGLYSLSSVVTVPSSSLGTQTYICNVNHKPSNTKVDKKVEPKSC
B4: Clone 2 (antibody, V domains shown)
VH: EVQLQQSGPELVKPGASVKISCKASGYSFTGYSMNWMKQSPEKSLEWIGEINPSTGGTTDNQKFKAKATLTVDKSSSTAYMQLKSLTSEDSAVYYCARSRGDYWGQGTSVTVSS
VL: DIVLTQSPASLAVSLGQRATISCRASESVEYYGTSLMQWYQQKPGQPPKVLIYAASNVESGVPARFSGSGSGTDFSLNIHPVEEDDIAMYFCQQSRKVPWTFGGGTKLEIKR

Experiments:
[1] = molecular target: T1, SARS-COV-2 RBD-his tag protein (Sino Biological) (SARS-CoV-2, UniProt P0DTC2 319-541)
[2] = molecular target: T1, SARS-COV-2 RBD-his tag protein (Sino …); remark: listed apart in the source
[3] = molecular target: T1, SARS-COV-2 RBD-his tag protein (Sino …); remark: listed apart in the source

Row | Binder | Kd [1] [nM] | koff [1] [s⁻¹] | kon [1] [M⁻¹ s⁻¹] | Kd [2] [nM] | koff [2] [s⁻¹] | kon [2] [M⁻¹ s⁻¹] | Kd [3] [pM] | koff [3] [s⁻¹] | kon [3] [M⁻¹ s⁻¹]
1 | B1 | 2.27 | 0.00611 | 2.69e+06 | 0.148 | 0.00056 | 3.77e+06 | – | – | –
2 | B2 | 4.17 | 0.000497 | 119000 | – | – | – | – | – | –
3 | B3 | 2.95 | 0.00461 | 1.56e+06 | – | – | – | – | – | –
4 | B4 | 1.67 | 0.000853 | 511000 | 0.0441 | 7.09e-05 | 1.61e+06 | 1.58 | 1.49e-07 | 94500
